The values that follow come from article PMC8218332 (Cell, 2021).

The assay deals with His-tagged SARS-CoV-2 RBD (Victoria RBD) (SARS-CoV-2, Victoria/Wuhan-Hu-1 (same …, UniProt P0DTC2)). Kind of assay: BLI. The settings on record: both partners purified.

B1: mAb 88 (antibody, V domains shown)
VH: QLQLQESGPGLVKPSQTLSLTCTVSGGSISSGSYNWTWIRQPAGKGLEWIGRIYNSGSTNYNPSLKSRVTISVDTSKNQLSLKVRSVTAADTAVYYCARHCSGGTCYPKYYYGMDVWGQGTTVTVSS
VL: QSALTQPPSVSEAPRQRVTISCSGSSSNIGNNAVNWYQQFPGKAPKLLIYYDDLLPSGVSDRFSGSKSGTSASLAISGVQSEDEADYYCAAWDDSLNVVVFGGGTKLTVL
notes: copies: 2 + 2
By Kd is commonly meant the free concentration of one partner at which half of the binding sites on the other are occupied at equilibrium, for simple one-to-one binding. High values mean weaker binding, low ones tighter binding. On to B1, for which binding was characterised by a dissociation constant (Kd) of 4.4 nM.

B2: mAb 316 (antibody, V domains shown)
VH: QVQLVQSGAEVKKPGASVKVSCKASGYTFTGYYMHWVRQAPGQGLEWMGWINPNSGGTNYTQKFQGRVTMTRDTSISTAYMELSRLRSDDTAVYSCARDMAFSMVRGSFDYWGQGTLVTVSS
VL: QAVLTQPPSASGSPGQSVTISCTGTSSDVGGYNYVSWYQQHPGKAPKLMIYEVSKRPSGVPDRFSGSKSGNTASLTVSGLQAEDEADYYCSSYAGSNHWVFGGGTKLTVL
notes: copies: 2 + 2
As to B2, binding was put at a Kd of 0.38 nM.

B3: REGN10987 (antibody, V domains shown)
VH: QVQLVESGGGVVQPGRSLRLSCAASGFTFSNYAMYWVRQAPGKGLEWVAVISYDGSNKYYADSVKGRFTISRDNSKNTLYLQMNSLRTEDTAVYYCASGSDYGDYLLVYWGQGTLVTVSS
VL: QSALTQPASVSGSPGQSITISCTGTSSDVGGYNYVSWYQQHPGKAPKLMIYDVSKRPSGVSNRFSGSKSGNTASLTISGLQSEDEADYYCNSLTSISTWVFGGGTKLTVL
notes: source: provided by AstraZeneca; copies: 2 + 2
B3 showed a Kd of 0.38 nM.

B4: mAb 222 (antibody, V domains shown)
VH: EVQLVESGGGLIQPGGSLRLSCAASGLTVSSNYMSWVRQAPGKGLEWVSVIYSGGSTFYADSVKGRFTISRDNSKNTLYLQMNSLGAEDTAVYYCARGEGSPGNWFDPWGQGTLVTVSS
VL: DVVMTQSPGTLSLSPGERATLSCRASQSVPSSYLAWYQQKPGQAPRLLIYGASTRATGIPDRFSGSGSGTDFTLTISRLEPEDFAVYYCQHYDTSPRFGGGTKVDIK
notes: copies: 2 + 2
Take B4: binding was put at a Kd of 0.25 nM.

B5: mAb 278 (antibody, V domains shown)
VH: QVQLVQSGAEVKKPGASVKVSCKASGYIFIRYGISWVRQAPGQGLEWMGWISANNGYTNYAQKLQGRVTMTTDTSTSTAYMELRSLRSDDTAVYYCARDGGILTGYLDYFDHWGQGTLVTVSS
VL: DIQMTQSPSSLSASVGDRLTITCRASQSIASYLNWYQQKPGKAPKLLIYAASSLQSGVPSRFSGSGSGTDFTLTISSLQPEDFATYHCQQSYSTLGITFGPGTKVDIK
notes: copies: 2 + 2
For the molecule B5, binding was characterised by a dissociation constant (Kd) of 1.6 nM.

B6: mAb 384 (antibody, V domains shown)
VH: EVQLVESGGGLVKPGESLRLSCAASGFTFSDYYMTWIRQAPGKGLEWVSYIRSSGHTIYYADSVKGRFTISRDNAKNSLYLQMNSLRVEDTAVYYCARGGVLRFLEWPLNAFDIWGQGTMVTVSS
VL: DIQLTQSPSSLSASVGDRVTITCRASQGISNYLAWYQQKPGKVPKLLIYAASTLQSGVPSRFSGSGSGTDFTLTISSLQPEDVATYYCQKYNNALGTFGQGTKVEIK
notes: copies: 2 + 2
B6 returned a Kd of 0.65 nM.
